Test results from the Immune Epitope Database (IEDB).
pKd: −log10 of the molar value.

Tests used:
HLA-A*03:01 [1] = assay: IEDB peptide-MHC binding, purified MHC/competitive/fluorescence; filed as Kd, often an IC50 or EC50 that approximates it; ≥ and ≤ were set here for values at or beyond the usual limits of such assays
HLA-B*07:02 = assay: IEDB peptide-MHC binding, purified MHC/competitive/radioactivity; filed as Kd, often an IC50 or EC50 that approximates it; ≥ and ≤ were set here for values at or beyond the usual limits of such assays
HLA-B*35:01 = assay: as above
HLA-B*51:01 = assay: as above
HLA-B*53:01 = assay: as above
HLA-B*54:01 = assay: as above
HLA-B*18:01 [2] = assay: IEDB peptide-MHC binding, purified MHC/direct/fluorescence; filed as Kd, often an IC50 or EC50 that approximates it; ≥ and ≤ were set here for values at or beyond the usual limits of such assays
HLA-A*02:01 = assay: IEDB peptide-MHC binding, purified MHC/competitive/radioactivity; filed as Kd, often an IC50 or EC50 that approximates it; ≥ and ≤ were set here for values at or beyond the usual limits of such assays
HLA-A*02:02 = assay: as above
HLA-A*02:03 = assay: as above
HLA-A*02:06 = assay: as above
HLA-A*68:02 = assay: as above
HLA-A*03:01 [3] = assay: as above
HLA-A*11:01 = assay: as above
HLA-A*31:01 = assay: as above
HLA-A*33:01 = assay: as above
HLA-A*68:01 = assay: as above
HLA-B*15:01 = assay: IEDB peptide-MHC binding, purified MHC/competitive/fluorescence; filed as Kd, often an IC50 or EC50 that approximates it; ≥ and ≤ were set here for values at or beyond the usual limits of such assays; details: source organism: Shigella flexneri 5 str. 8401
HLA-A*01:01 = assay: IEDB peptide-MHC binding, purified MHC/competitive/radioactivity; filed as Kd, often an IC50 or EC50 that approximates it; ≥ and ≤ were set here for values at or beyond the usual limits of such assays; details: source organism: Hepacivirus hominis
HLA-B*08:01 = assay: as above; details: source organism: Hepacivirus hominis
HLA-B*18:01 [4] = assay: as above; details: source organism: Hepacivirus hominis
HLA-B*40:01 [5] = assay: as above; details: source organism: Hepacivirus hominis
HLA-B*40:02 = assay: as above; details: source organism: Hepacivirus hominis
HLA-B*44:02 [6] = assay: as above; details: source organism: Hepacivirus hominis
HLA-B*44:03 = assay: as above; details: source organism: Hepacivirus hominis
HLA-B*40:01 [7] = assay: IEDB peptide-MHC binding, purified MHC/direct/fluorescence; filed as Kd, often an IC50 or EC50 that approximates it; ≥ and ≤ were set here for values at or beyond the usual limits of such assays
HLA-B*44:02 [8] = assay: as above
[9] = source organism: Human alphaherpesvirus 2
[10] = source organism: Vaccinia virus WR
[11] = source organism: Mammarenavirus lassaense
[12] = source organism: SARS coronavirus Tor2
[13] = source organism: Trypanosoma cruzi
[14] = source organism: Vaccinia virus Copenhagen
[15] = source organism: Giardia lamblia ATCC 50803
[16] = source organism: Lymphocytic choriomeningitis virus (strain Armstrong)
[17] = source organism: Triticum aestivum
[18] = source organism: Hepacivirus hominis
[19] = source organism: Influenza A virus (A/duck/Guangxi/1586/2004(H5N1))
[20] = source organism: Orthohantavirus dobravaense
[21] = source organism: Mammarenavirus juninense
[22] = source organism: Orthohantavirus andesense

## ALTSAMLDR
HLA-A*03:01 [1]; source organism: Yersinia pestis Antiqua
  pKd: 7.42

## APAWSRRTL
HLA-B*07:02; [9]
  pKd: 9.72
HLA-B*35:01; [9]
  pKd: 5.49
HLA-B*51:01; [9]
  pKd: ≤ 4.23
HLA-B*53:01; [9]
  pKd: 5.45
HLA-B*54:01; [9]
  pKd: 5.25

## APKQVAGTGV
HLA-B*07:02; [10]
  pKd: 7.96
HLA-B*35:01; [10]
  pKd: ≤ 4.16
HLA-B*51:01; [10]
  pKd: ≤ 4.21
HLA-B*53:01; [10]
  pKd: ≤ 4.16
HLA-B*54:01; [10]
  pKd: 6.58

## CPFLFLTVL
HLA-B*07:02; [11]
  pKd: 7.00
HLA-B*35:01; [11]
  pKd: 7.39
HLA-B*51:01; [11]
  pKd: 6.13
HLA-B*53:01; [11]
  pKd: 6.67
HLA-B*54:01; [11]
  pKd: 6.80

## CPQKKKSQA
HLA-B*07:02; [10]
  pKd: 6.98
HLA-B*35:01; [10]
  pKd: ≤ 4.11
HLA-B*51:01; [10]
  pKd: ≤ 4.11
HLA-B*53:01; [10]
  pKd: ≤ 4.11
HLA-B*54:01; [10]
  pKd: 7.18

## DPLVIPFSF
HLA-B*18:01 [2]; source organism: Salmonella enterica subsp. enterica serovar Paratyphi A str. ATCC 9150
  pKd: 5.50

## DPPIPYSRV
HLA-B*07:02; [10]
  pKd: ≤ 4.11
HLA-B*35:01; [10]
  pKd: ≤ 4.27
HLA-B*51:01; [10]
  pKd: 7.51
HLA-B*53:01; [10]
  pKd: ≤ 4.50
HLA-B*54:01; [10]
  pKd: 6.49

## EPSGNNYHI
HLA-B*07:02; [10]
  pKd: 5.85
HLA-B*35:01; [10]
  pKd: ≤ 4.35
HLA-B*51:01; [10]
  pKd: 6.16
HLA-B*53:01; [10]
  pKd: 7.69
HLA-B*54:01; [10]
  pKd: 5.80

## FPQVGGLTSI
HLA-B*07:02; [12]
  pKd: 6.79
HLA-B*35:01; [12]
  pKd: 6.22
HLA-B*51:01; [12]
  pKd: 7.11
HLA-B*53:01; [12]
  pKd: 7.62
HLA-B*54:01; [12]
  pKd: 7.59

## GVLPLLLLYS
HLA-A*02:01; [13]
  pKd: 5.63
HLA-A*02:02; [13]
  pKd: 5.89
HLA-A*02:03; [13]
  pKd: 6.17
HLA-A*02:06; [13]
  pKd: 7.83
HLA-A*68:02; [13]
  pKd: 5.45

## IPEISSNDNA
HLA-B*07:02; [10]
  pKd: ≤ 4.16
HLA-B*35:01; [10]
  pKd: ≤ 4.16
HLA-B*51:01; [10]
  pKd: ≤ 4.16
HLA-B*53:01; [10]
  pKd: 5.62
HLA-B*54:01; [10]
  pKd: 5.34

## LILSCIFAFI
HLA-A*02:02; [14]
  pKd: 8.28
HLA-A*02:03; [14]
  pKd: 7.70
HLA-A*02:06; [14]
  pKd: 7.37
HLA-A*03:01 [3]; [14]
  pKd: 6.02
HLA-A*11:01; [14]
  pKd: 5.24
HLA-A*31:01; [14]
  pKd: 6.60
HLA-A*33:01; [14]
  pKd: 5.73
HLA-A*68:01; [14]
  pKd: 6.18
HLA-A*68:02; [14]
  pKd: 7.76
HLA-B*07:02; [14]
  pKd: ≤ 4.16
HLA-B*35:01; [14]
  pKd: ≤ 4.44
HLA-B*51:01; [14]
  pKd: 4.76
HLA-B*53:01; [14]
  pKd: 5.74
HLA-B*54:01; [14]
  pKd: 5.82

## LMLASSAGH
HLA-A*03:01 [1]; [15]
  pKd: 6.25

## LMLASSAGK
HLA-A*03:01 [1]; [15]
  pKd: 8.11

## LPNVQFVDI
HLA-B*07:02; [10]
  pKd: 5.57
HLA-B*35:01; [10]
  pKd: 6.63
HLA-B*51:01; [10]
  pKd: 7.49
HLA-B*53:01; [10]
  pKd: 7.19
HLA-B*54:01; [10]
  pKd: 7.77

## MPKDGLKVL
HLA-B*07:02; [11]
  pKd: 6.10
HLA-B*35:01; [11]
  pKd: 6.38
HLA-B*51:01; [11]
  pKd: 5.19
HLA-B*53:01; [11]
  pKd: 5.63
HLA-B*54:01; [11]
  pKd: 7.02

## MPSLTMACM
HLA-B*07:02; [16]
  pKd: 6.95
HLA-B*35:01; [16]
  pKd: 8.26
HLA-B*51:01; [16]
  pKd: 6.06
HLA-B*53:01; [16]
  pKd: 5.67
HLA-B*54:01; [16]
  pKd: 5.89

## NELQTLPSL
HLA-A*03:01 [1]; source organism: Shigella flexneri 5 str. 8401
  pKd: ≤ 4.70
HLA-B*15:01
  pKd: ≤ 4.70

## QPQLPYPQPQL
HLA-B*07:02; [17]
  pKd: 5.02
HLA-B*35:01; [17]
  pKd: ≤ 4.39
HLA-B*51:01; [17]
  pKd: 6.45
HLA-B*53:01; [17]
  pKd: ≤ 4.20
HLA-B*54:01; [17]
  pKd: ≤ 4.20

## RDWAHNSL
HLA-A*01:01
  pKd: 5.74
HLA-A*02:01; [18]
  pKd: ≤ 4.16
HLA-A*02:02; [18]
  pKd: ≤ 4.15
HLA-A*02:03; [18]
  pKd: ≤ 4.15
HLA-A*02:06; [18]
  pKd: ≤ 4.25
HLA-A*03:01 [3]; [18]
  pKd: ≤ 4.06
HLA-A*11:01; [18]
  pKd: ≤ 4.06
HLA-A*31:01; [18]
  pKd: ≤ 4.17
HLA-A*33:01; [18]
  pKd: ≤ 4.11
HLA-A*68:01; [18]
  pKd: ≤ 4.06
HLA-A*68:02; [18]
  pKd: ≤ 4.16
HLA-B*07:02; [18]
  pKd: 5.25
HLA-B*08:01
  pKd: ≤ 4.08
HLA-B*18:01 [4]
  pKd: ≤ 4.05
HLA-B*35:01; [18]
  pKd: ≤ 4.06
HLA-B*40:01 [5]
  pKd: ≤ 4.05
HLA-B*40:02
  pKd: ≤ 4.05
HLA-B*44:02 [6]
  pKd: ≤ 4.12
HLA-B*44:03
  pKd: ≤ 4.06
HLA-B*51:01; [18]
  pKd: ≤ 4.06
HLA-B*53:01; [18]
  pKd: ≤ 4.06
HLA-B*54:01; [18]
  pKd: ≤ 4.06

## REILTKTTV
HLA-B*18:01 [2]; [19]
  pKd: 6.45
HLA-B*40:01 [7]; [19]
  pKd: 8.31
HLA-B*44:02 [8]; [19]
  pKd: ≤ 4.32

## SEVTTCFFL
HLA-B*18:01 [2]; [20]
  pKd: 7.31
HLA-B*40:01 [7]; [20]
  pKd: 7.90

## SQCQAIHNV
HLA-A*02:01; [17]
  pKd: 6.01
HLA-A*02:02; [17]
  pKd: 6.11
HLA-A*02:03; [17]
  pKd: 6.60
HLA-A*02:06; [17]
  pKd: 6.88
HLA-A*68:02; [17]
  pKd: 5.24

## TPENFSSLI
HLA-B*07:02; [21]
  pKd: 5.08
HLA-B*35:01; [21]
  pKd: ≤ 4.41
HLA-B*51:01; [21]
  pKd: 5.71
HLA-B*53:01; [21]
  pKd: 5.88
HLA-B*54:01; [21]
  pKd: ≤ 4.11

## VENSPRASL
HLA-B*18:01 [2]; [11]
  pKd: 6.26
HLA-B*40:01 [7]; [11]
  pKd: 6.95

## VPWSKILAY
HLA-B*07:02; [12]
  pKd: 6.35
HLA-B*35:01; [12]
  pKd: 8.09
HLA-B*51:01; [12]
  pKd: 7.04
HLA-B*53:01; [12]
  pKd: 8.15
HLA-B*54:01; [12]
  pKd: 6.27

## YEGDLRVTF
HLA-B*18:01 [2]; [22]
  pKd: ≥ 9.00
HLA-B*40:01 [7]; [22]
  pKd: 8.08
HLA-B*44:02 [8]; [22]
  pKd: 5.37
